Reference: PMC5117808 (Nature chemical biology, 2016)
No end group written: not given here.

B1: MdnB (ATP-grasp macrocyclase, microviridin J pathway, Microcystis aeruginosa MRC) (enzyme)
chain: MKESPKVVLLLTHSGDFFTIDRVAEAIEKKGATPFRLDTDKFPLEVQLTAQFNGKKSFYQLSYNHQSIDSEQVQSVWTRRIWQPELTGDLDPQFREVCVRESQTTLAGFWDSLRSARWLDNLAQIEKAKNKLLQLRLASEVGLIIPPTLVTNNPDAAREFFSQVQGRMVSKLLTAIARSMESPEFFLYTSRVKAEDLEEAESLRYCPMVFQAEIPKQLELRVVVVNGQTFVGALESSQYNNSAVDWRRPGIDPGAWQHHTLPDSLLQQLQIFMANLGLNFGAFDFILTPGGEYVFLEVNPGGEWGMLERDLDLPISQAIADFLVFG

How the values were obtained:
[1] = target: MdnC (Microcystis aeruginosa MRC); assay: SEC
[2] = target: MdnC (Microcystis aeruginosa MRC); assay: crystal structure
[3] = target: MdnC (ATP-grasp macrocyclase, microviridin J pathway, Microcystis aeruginosa MRC) (Microcystis aeruginosa MRC); assay: ITC
[4] = target: T1, MdnB (Microcystis aeruginosa MRC, UniProt B2G3C9); assay: ITC binding of MdnA peptides to MdnB
T1 sequence (B2G3C9 1-326): B1 chain

[5] = target: T2, MdnC (Microcystis aeruginosa MRC, UniProt B2G3D0); assay type: binding; conditions: ITC
T2 sequence (B2G3D0 1-324): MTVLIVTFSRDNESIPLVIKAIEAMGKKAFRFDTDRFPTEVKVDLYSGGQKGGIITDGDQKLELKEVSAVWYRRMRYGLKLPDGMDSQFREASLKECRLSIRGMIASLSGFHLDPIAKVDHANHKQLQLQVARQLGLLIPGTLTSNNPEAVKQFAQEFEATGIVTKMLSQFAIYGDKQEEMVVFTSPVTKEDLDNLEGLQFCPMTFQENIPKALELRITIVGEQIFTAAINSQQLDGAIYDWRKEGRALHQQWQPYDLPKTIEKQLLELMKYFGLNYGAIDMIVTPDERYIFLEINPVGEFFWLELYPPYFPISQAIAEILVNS

[6] = test system: Daphnia; conditions: through inhibition of serine-type proteases; cited from earlier work
[7] = target: MdnC (ATP-grasp macrocyclase, microviridin J pathway, Microcystis aeruginosa MRC) (Microcystis aeruginosa MRC); assay: SEC + native gel or EMSA
[8] = target: the molecule itself; assay: SEC + native gel or EMSA
[9] = target: B1; assay: ITC

Molecule MdnC (enzyme) has a stoichiometry N [1] of 2 and a stoichiometry N [2] of 2.

Molecule “Full-length MdnA (residues 1-49), microviridin J precursor peptide (from UniProt B2G3C8 1-49)” has a Kd [3] of 0.112 µM.

With `Nc1ncnc2c1ncn2[C@@H]1O[C@H](COP(=O)(O)OP(=O)(O)OP(=O)(O)O)[C@@H](O)[C@H]1O` [ATP] the “Binding to MdnB, in words” value [4] was “neither MdnC nor MdnB show an observable heat change” and the “Binding to MdnC, in words” value [5] was “neither MdnC nor MdnB show an observable heat change”.

For microviridin J, the “Effect on Daphnia” value [6] is listed as “lethal molting disruption”.

“MdnC (ATP-grasp macrocyclase, microviridin J pathway, Microcystis aeruginosa MRC) (enzyme)” showed a stoichiometry N [7] of 2.

For MAYPNDQQGKALPFFARFLSVSKEESSIKSPSPDH (not fully specified), the Kd [3] was 0.146 µM.

GKALPFFARFLSVS (not fully specified) [MdnA[9-22], minimal peptide containing the conserved region of the leader peptide] gave a Kd [3] of 0.308 µM.

With B1 the “stoichiometry N” value [8] was 2.

MAYPNDQQGKALPFFARFLSVSKEESSIKSPSPDHEISTRKYPSDWEEW [Full-length MdnA (residues 1-49), microviridin J precursor peptide] gave a Kd [9] of 4.8 ± 1 µM.

Work on MAYPNDQQGKALPFFARFLSVSKEESSIKSPSPDH yielded a Kd [9] of 2.8 ± 0.8 µM.

MAYPNDQQGKALPFFARFLSVSKEESSIKSPSPDHEISTRKYPSDWEEW (two macrolactone rings, Thr39/Asp45 and Ser43/Glu47 (installed by MdnC)) [MdnAΔ2, dicyclic intermediate of MdnA] showed a Kd [9] of 6.4 ± 2 µM.
